The text below walks through data of patent CN113388031A (SHANGHAI INSTITUTE FOR ADVANCED STUDY OF ZHEJIANG UNIV, dated 2021).

Assay [1] has as its target SARS-CoV-2突变株501Y.V2 (B.1.351) S蛋白 (spike protein of 501Y.V2, on live virus) (SARS-CoV-2 501Y.V2 (B.1.351), UniProt P0DTC2 14-1273). The assay can be described thus: cell-based or functional assay.
Assay [2] deals with SARS-CoV-2突变株D614G S蛋白 (spike protein of the D614G mutant strain, on live virus) (SARS-CoV-2 D614G mutant strain, UniProt P0DTC2 14-1273). Kind of assay: cell-based or functional assay.

B1: 单克隆抗体35B5 (monoclonal antibody 35B5) (antibody, V domains shown, not shown: large carriers)
VH: QVQLLESGGGLVQPGRSLRLSCAASGFTFDDYAMHWVRQAPGKGLEWVSGVSWNSGTIGYADSVKGRFTISRDNAKNSLYLHMRSLRAEDTALYYCAKAVEMVRGLMGLGADPEYGMDVWGQGTTVTVSS
VL: not shown
For B1, the “IC50, live SARS-CoV-2 neutralisation on Vero E6 cells (plaque / focus assay)” value stood at 0.013 µg/mL in assay [1] and 0.00728 µg/mL in assay [2].
